Measured values taken from article PMC7660911.
Where “and” joins values, the source holds several entries; their conditions need not be identical. Identical values can stand only once.

Molecular target: pVHL172-BirA(R118G)-HA fusion protein (human) (UniProt P40337)
Experiment: proximity labelling; BioID with truncated VHL-BirA constructs in HeLa and 786-O cells; blots quantified as biotinylated prefoldin / pVHL expression level, full-length VHL213-BirA set as 1 (Fig 1C)

fold lower binding than with the exons 2&3 version | Substance
4 fold and 5 fold | Prefoldin subunit 1 (from UniProt O60925 1-122) (natural protein)
4 fold and 5 fold | Prefoldin subunit 3 (from UniProt P61758-1 1-197) (natural protein)
